In patent US20070101449A1:
Several values for one entry are separate records, joined by “and”; a condition that tells them apart may be missing. Equal entries are not always repeated.

Key:
[1] = molecular target: APP695-derived polypeptide having the modified sequence NFEV at the β secretase cleavage site (UniProt P05067); assay: cell-based or functional assay
[2] = molecular target: APP695-derived polypeptide carrying the Swedish mutant NLDA at the β secretase cleavage site (UniProt P05067); assay: cell-based or functional assay

## human β secretase (from UniProt P56817 46-501) (enzyme)
[1]
  levels of Aβ (IP/Western blot of conditioned media of transfected HEK293T cells) (fold over wild-type KMDA): 15 and 20
[2]
  levels of Aβ (IP/Western blot of conditioned media of transfected HEK293T cells) (fold over wild-type KMDA): 15 and 20
